These results are taken from publication doi:10.1101/2022.12.21.521443 (2022).

In the experiment the target is S. cerevisiae Pbs2 target peptide (S. cerevisiae, UniProt P08018).
Chain of S. cerevisiae Pbs2 target peptide (P08018 whole entry): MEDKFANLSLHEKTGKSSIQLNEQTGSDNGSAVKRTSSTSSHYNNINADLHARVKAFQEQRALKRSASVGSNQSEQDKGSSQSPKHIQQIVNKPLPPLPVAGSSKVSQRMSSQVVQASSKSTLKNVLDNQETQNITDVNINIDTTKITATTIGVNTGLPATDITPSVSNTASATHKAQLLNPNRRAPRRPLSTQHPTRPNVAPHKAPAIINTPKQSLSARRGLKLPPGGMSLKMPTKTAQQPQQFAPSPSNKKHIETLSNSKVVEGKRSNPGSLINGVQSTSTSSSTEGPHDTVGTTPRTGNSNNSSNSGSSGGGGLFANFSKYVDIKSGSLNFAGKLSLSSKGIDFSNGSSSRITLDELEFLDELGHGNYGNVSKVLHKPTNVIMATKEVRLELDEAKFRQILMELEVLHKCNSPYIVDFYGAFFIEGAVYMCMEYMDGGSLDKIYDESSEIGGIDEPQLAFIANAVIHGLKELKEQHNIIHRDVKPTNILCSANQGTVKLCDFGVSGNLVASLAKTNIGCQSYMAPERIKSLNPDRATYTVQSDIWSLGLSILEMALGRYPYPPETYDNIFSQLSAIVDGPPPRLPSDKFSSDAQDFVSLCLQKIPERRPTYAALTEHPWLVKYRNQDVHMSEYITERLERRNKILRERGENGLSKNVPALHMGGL

B1: wild-type S. cerevisiae Sho1 SH3 domain (domain or fragment)
chain: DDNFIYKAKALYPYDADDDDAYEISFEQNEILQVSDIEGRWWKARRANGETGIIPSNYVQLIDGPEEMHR
Turning to B1, the Kd (commonly a measure of binding affinity in units of concentration) was 3 µM.
